Test results published in paper PMC12190498, “Improving the Catalytic Activity and Thermostability of FAST-PETase with a Multifunctional Short Peptide” (Biomolecules, 2025).

Substrate: CCCC(=O)Oc1ccc([N+](=O)[O-])cc1
Test: purified protein
Format: biochemical, Pseudideonella sakaiensis
[1] = 50 mM potassium phosphate pH 7.5, 50°C or 55°C (50°C is the optimum of this enzyme)
[2] = 50 mM potassium phosphate pH 7.5, 50°C or 55°C (55°C is the optimum of this enzyme)

Protein | Km [1] | kcat [1] | kcat/Km [1] | Km [2] | kcat [2] | kcat/Km [2]
FAST-PETase (Pseudideonella sakaiensis; D186H/N233K/R224Q/R280A/S121E) (protein, FAST-PETase, C-terminal 6xHis, pET28a, E. coli Origami 2(DE3), Ni-NTA) QTNPYARGPNPTAASLEASAGPFTVRSFTVSRPSGYGAGTVYYPTNAGGTVGAIAIVPGYTARQSSIKWWGPRLASHGFVVITIDTNSTLDQPESRSSQQMAALRQVASLNGTSSSPIYGKVDTARMGVMGWSMGGGGSLISAANNPSLKAAAPQAPWHSSTNFSSVTVPTLIFACENDSIAPVNSSALPIYDSMSQNAKQFLEIKGGSHSCANSGNSNQALIGKKGVAWMKRFMDNDTRYSTFACENPNSTAVSDFRTANCS | 880 ± 160 µM | 0.724 ± 0.0532 s⁻¹ | 824 ± 112 M⁻¹ s⁻¹ | – | – | –
S1v1-FAST-PETase (Pseudideonella sakaiensis; D186H/N233K/R224Q/R280A/S121E) (protein, artificial peptide S1v1 (AEAEAHAH)2 fused to N-terminus via PT-linker …, C-terminal 6xHis, E. coli Origami 2(DE3), Ni-NTA) QTNPYARGPNPTAASLEASAGPFTVRSFTVSRPSGYGAGTVYYPTNAGGTVGAIAIVPGYTARQSSIKWWGPRLASHGFVVITIDTNSTLDQPESRSSQQMAALRQVASLNGTSSSPIYGKVDTARMGVMGWSMGGGGSLISAANNPSLKAAAPQAPWHSSTNFSSVTVPTLIFACENDSIAPVNSSALPIYDSMSQNAKQFLEIKGGSHSCANSGNSNQALIGKKGVAWMKRFMDNDTRYSTFACENPNSTAVSDFRTANCS | – | – | – | 860 ± 150 µM | 0.581 ± 0.0392 s⁻¹ | 679 ± 72.2 M⁻¹ s⁻¹
FAST-PETase-S1v1 (Pseudideonella sakaiensis; D186H/N233K/R224Q/R280A/S121E) (protein, artificial peptide S1v1 (AEAEAHAH)2 fused to C-terminus via PT-linker …, C-terminal 6xHis, E. coli Origami 2(DE3), Ni-NTA) QTNPYARGPNPTAASLEASAGPFTVRSFTVSRPSGYGAGTVYYPTNAGGTVGAIAIVPGYTARQSSIKWWGPRLASHGFVVITIDTNSTLDQPESRSSQQMAALRQVASLNGTSSSPIYGKVDTARMGVMGWSMGGGGSLISAANNPSLKAAAPQAPWHSSTNFSSVTVPTLIFACENDSIAPVNSSALPIYDSMSQNAKQFLEIKGGSHSCANSGNSNQALIGKKGVAWMKRFMDNDTRYSTFACENPNSTAVSDFRTANCS | – | – | – | 1220 ± 180 µM | 1.36 ± 0.0918 s⁻¹ | 1110 ± 138 M⁻¹ s⁻¹
